Values belong to the binder of their own block, whether it stands above or below them. No end group written: not given here.
Key:
[1] = biological target: T1, P-selectin expressed on the surface of CHO cells (CHO:P-selectin cell line) (UniProt P16109 42-830, limits assumed); test: plate coated with chimera; adhesion of CHO:P-selectin cells (FIG. 17)
T1 construct: whole, on cells; also called P-selectin expressing CHO cells
T1 sequence (looked up): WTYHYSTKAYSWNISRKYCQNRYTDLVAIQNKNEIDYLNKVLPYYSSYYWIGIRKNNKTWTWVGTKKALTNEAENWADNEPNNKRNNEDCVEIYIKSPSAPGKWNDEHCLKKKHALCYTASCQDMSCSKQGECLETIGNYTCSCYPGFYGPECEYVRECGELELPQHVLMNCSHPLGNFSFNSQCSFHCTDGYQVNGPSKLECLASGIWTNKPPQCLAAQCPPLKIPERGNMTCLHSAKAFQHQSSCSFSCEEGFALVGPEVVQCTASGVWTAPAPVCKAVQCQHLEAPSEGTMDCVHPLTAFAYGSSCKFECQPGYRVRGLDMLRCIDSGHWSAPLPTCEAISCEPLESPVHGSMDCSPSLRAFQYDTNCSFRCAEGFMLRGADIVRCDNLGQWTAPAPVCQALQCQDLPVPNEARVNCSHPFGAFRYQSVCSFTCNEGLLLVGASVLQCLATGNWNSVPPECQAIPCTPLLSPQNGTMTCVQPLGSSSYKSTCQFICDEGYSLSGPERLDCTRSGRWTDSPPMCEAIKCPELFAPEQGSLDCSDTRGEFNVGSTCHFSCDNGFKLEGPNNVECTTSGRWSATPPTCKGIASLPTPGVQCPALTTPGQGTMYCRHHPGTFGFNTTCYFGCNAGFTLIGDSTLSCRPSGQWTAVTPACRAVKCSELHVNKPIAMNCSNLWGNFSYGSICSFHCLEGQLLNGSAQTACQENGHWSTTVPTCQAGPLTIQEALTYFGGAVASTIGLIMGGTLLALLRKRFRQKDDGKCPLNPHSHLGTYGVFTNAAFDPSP
Description: (§1) Quantitative adhesion of CHO:P-selectin, CHO:E-selectin and CHO:L-selectin expressing cells was performed as described in Example 4(c), with the following modifications: COS cell and antibodies were omitted. Instead, 48-well microtiter plates (Costar) were coated for 16 hours at 4° C. with varying quantities of protein A-purified soluble PSGL-1/Fc chimeras. The unbound material was removed and the coated wells were treated with Hank's buffered saline (HBS) with 1 mg/ml BSA and 2 mM CaCl_2 for 1 hour at 4° C. Tritium labeled CHO selectin expressing cells were added and binding quantitated as described in Example 4(c).

[2] = biological target: T2, E-selectin expressed on CHO cells (CHO:E-selectin) (UniProt P16581 22-610, limits assumed); test: plate coated with chimera; adhesion of CHO:E-selectin cells (FIG. 17)
T2 construct: whole, on cells; also called E-selectin expressing CHO cells; CHO cells which express E-selectin
T2 sequence (looked up): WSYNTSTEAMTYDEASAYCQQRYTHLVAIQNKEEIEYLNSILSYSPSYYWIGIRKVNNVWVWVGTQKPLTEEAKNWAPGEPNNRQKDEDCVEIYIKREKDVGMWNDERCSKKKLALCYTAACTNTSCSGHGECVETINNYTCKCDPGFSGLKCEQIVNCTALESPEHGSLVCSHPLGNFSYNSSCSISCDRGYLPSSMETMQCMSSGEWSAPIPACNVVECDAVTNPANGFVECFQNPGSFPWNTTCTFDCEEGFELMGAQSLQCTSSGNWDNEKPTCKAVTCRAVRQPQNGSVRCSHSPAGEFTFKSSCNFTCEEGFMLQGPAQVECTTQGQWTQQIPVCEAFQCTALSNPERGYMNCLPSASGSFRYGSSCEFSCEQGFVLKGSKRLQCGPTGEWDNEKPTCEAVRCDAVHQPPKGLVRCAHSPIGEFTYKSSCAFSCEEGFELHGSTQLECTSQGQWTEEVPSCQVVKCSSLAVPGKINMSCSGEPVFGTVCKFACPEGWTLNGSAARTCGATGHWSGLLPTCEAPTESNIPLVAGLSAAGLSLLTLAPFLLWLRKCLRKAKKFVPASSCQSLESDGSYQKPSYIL
Description: as §1

[3] = biological target: T2, E-selectin expressed on CHO cells …; test: plate coated with chimera; adhesion of CHO:E-selectin cells (FIG. 20)
Description: as §1

[4] = biological target: T1, P-selectin expressed on the surface of …; test: plate coated with chimera; adhesion of CHO:P-selectin cells (FIG. 19)
Description: as §1

[5] = biological target: T3, LEC-γ1, chimeric form of P-selectin conjugated to the Fc portion of a human IgGγ1 (human, UniProt P16109 42-771); test: affinity capture on P-selectin/IgG chimera protein A sepharose, EDTA elution, scintillation counting
T3 construct: extracellular domain; Built by known methods (Aruffo et al. 1991), made in CHO DUKX cells; also called P-selectin/IgG chimera; P-selectin/Fc chimera; not shown: Fc portion of a human IgGγ1
T3 sequence (looked up): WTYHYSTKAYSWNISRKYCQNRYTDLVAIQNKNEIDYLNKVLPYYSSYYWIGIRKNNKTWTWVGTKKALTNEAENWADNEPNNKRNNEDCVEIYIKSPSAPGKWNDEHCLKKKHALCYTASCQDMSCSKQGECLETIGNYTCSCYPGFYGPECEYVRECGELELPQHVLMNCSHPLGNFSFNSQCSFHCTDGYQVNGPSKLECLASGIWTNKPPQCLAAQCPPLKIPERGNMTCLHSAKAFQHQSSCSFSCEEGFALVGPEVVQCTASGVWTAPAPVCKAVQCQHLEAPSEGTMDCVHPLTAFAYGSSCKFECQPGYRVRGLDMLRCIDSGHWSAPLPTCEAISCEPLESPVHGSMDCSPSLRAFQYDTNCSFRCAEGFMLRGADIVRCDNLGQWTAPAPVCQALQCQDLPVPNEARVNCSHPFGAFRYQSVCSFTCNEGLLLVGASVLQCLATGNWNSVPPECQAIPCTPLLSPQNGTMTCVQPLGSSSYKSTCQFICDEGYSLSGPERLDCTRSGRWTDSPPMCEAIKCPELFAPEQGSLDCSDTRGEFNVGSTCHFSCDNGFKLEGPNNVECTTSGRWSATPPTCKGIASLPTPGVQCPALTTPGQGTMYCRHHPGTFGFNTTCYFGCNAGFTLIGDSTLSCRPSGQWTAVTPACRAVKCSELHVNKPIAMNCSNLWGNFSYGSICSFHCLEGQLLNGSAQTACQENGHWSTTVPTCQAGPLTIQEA
Description: U937 cells (approximately 6.5 ×10^7) were recovered from tissue culture plates and divided equally into two 50 mL cultures (final concentration of […]) containing fresh complete RPMI medium and 50 µCi/ml of ^3H-glucosamine hydrochloride (labels the protein-linked carbohydrate of glycoproteins [Varki, FASEB 5:226-235 (1991)]. After 48 hours incubation, the cells from both cultures were recovered by centrifugation and washed three times with PBS. The pelleted cells were suspended in 2.5 mL each of a lysis buffer containing 1% Triton X-100 and disrupted by probe sonication for two minutes. The detergent lysates were placed on ice for three hours and then resonicated for an additional two minutes. The lysates were centrifuged at 16,000 rpm for five minutes, the supernatants were recovered and each adjusted to 12 mL with lysis buffer containing no detergent. […]
Following incubation, the two parallel reaction mixtures were each centrifuged at 2,000 rpm and supernatants were discarded. […] A final 1 mL pre-elution wash of each resin pellet using buffer containing 0.01% Triton X-100 was conducted and these were retained for quantitation of radioactive counts by liquid scintillation counting (LSC). […] The supernatants were recovered by centrifugation and then quantitated by LSC.

[6] = biological target: T4, E-selectin/IgG chimera of Example 9 (human) (UniProt P16581); test: affinity capture on E-selectin/IgG chimera protein A sepharose, EDTA elution, scintillation counting
T4 sequence (looked up): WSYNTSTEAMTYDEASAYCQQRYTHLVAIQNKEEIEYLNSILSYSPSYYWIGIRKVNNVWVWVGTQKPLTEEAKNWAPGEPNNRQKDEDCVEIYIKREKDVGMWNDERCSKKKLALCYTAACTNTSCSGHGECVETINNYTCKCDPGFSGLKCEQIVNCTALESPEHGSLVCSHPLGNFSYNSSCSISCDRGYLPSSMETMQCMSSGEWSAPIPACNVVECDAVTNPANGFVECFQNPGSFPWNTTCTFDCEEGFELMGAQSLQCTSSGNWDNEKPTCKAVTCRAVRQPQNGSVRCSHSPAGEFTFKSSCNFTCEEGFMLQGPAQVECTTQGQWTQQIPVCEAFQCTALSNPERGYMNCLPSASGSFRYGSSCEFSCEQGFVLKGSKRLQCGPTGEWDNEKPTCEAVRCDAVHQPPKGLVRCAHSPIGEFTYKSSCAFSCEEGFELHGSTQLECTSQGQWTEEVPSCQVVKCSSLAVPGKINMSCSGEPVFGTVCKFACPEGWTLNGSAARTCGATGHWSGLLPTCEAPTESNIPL

[7] = biological target: T1, P-selectin expressed on the surface of …; test: adhesion of 3H-thymidine-labelled CHO:P-selectin cells to transfected COS cells
Description: COS cells were co-transfected with the pMT21:PL85 plasmid of Example 1 and the pEA.3/4FT plasmid of Example 2 by the same procedure used in the initial stages of screening. As controls, COS cells were transfected with pMT21:PL85 alone, or with pEA.3/4FT alone, or with a similar plasmid containing no insert ("mock"). 24 hours post-transfection, the transfected cells were trypsinized and distributed into Costar 6-well tissue culture plates. CHO:P-selectin cells were labeled for 16 hours with ^3H-thymidine using known methods and preincubated at 0.5×10^6 cells/ml for 30 minutes at 4° C. in α medium containing 1% BSA (control); α medium containing 1% BSA, 5 mM EDTA and 5 mM EGTA; α medium containing 1% BSA and 10 μg/ml of a neutralizing anti P-selectin monoclonal antibody; and α medium containing 1% BSA and a non-neutralizing anti-P-selectin monoclonal antibody. The preincubated cells were then added to the wells containing the transfected COS cells. After a 10 minute incubation, unbound cells were removed by 4 changes of medium. The bound CHO:P-selectin cells were released by trypsinization and quantified by scintillation counting.
Likewise, incubation with neutralizing anti-P-selectin antibody also eliminated specific binding, whereas non-neutralizing antibody had no effect. […]

binding result [1]: binds
binding result [2]: binds
B1: 47.Fc of Example 10, amino acids 42-88 of SEQ ID NO:2 fused to IgG Fc (Fc fusion)
chain: QATEYEYLDYDFLPETEPPEMLRNSTDTTPLTGPGTPESTTVEPAAR
modifications: not fully specified (C-terminus); also: glycosylated, co-expressed with 3/4FT, sites not given here
notes: also called pED.47.Fc product; not shown: NotI junction/linker of pED.Fc; Fc region of a human IgG1 from pED.PSL.Fc

binding result [3]: binds
binding result [4]: binds
B2: H24.Q70.148.Fc (Fc fusion)
chain: QATEYEYLDYDFLPETEPPEMLRHSTDTTPLTGPGTPESTTVEPAARRSTGLDAGGAVTELTTELANMGQLSTDSAAMEIQTTQPAATEAQTTPLAATEAQTTRLTATEAQTTPLAATEAQTTPPAATEAQTTQPTGLEAQTTAPAAM
modifications: glycosylated, co-expressed with 3/4FT
notes: also called pED.H24.Q70.148.Fc product; not shown: NotI junction/linker of pED.Fc; Fc region of a human IgG1

radiolabel in the EDTA eluate relative to the final pre-EDTA wash [5]: ≥ 10 fold
radiolabel in the EDTA eluate relative to the final pre-EDTA wash [6]: > 10 fold
B3: native PSGL-1 of U937 cells (major glycoprotein captured from detergent extracts) (ligand, human, UniProt Q14242 42-412, looked up)
chain: QATEYEYLDYDFLPETEPPEMLRNSTDTTPLTGPGTPESTTVEPAARRSTGLDAGGAVTELTTELANMGNLSTDSAAMEIQTTQPAATEAQTTQPVPTEAQTTPLAATEAQTTRLTATEAQTTPLAATEAQTTPPAATEAQTTQPTGLEAQTTAPAAMEAQTTAPAAMEAQTTPPAAMEAQTTQTTAMEAQTTAPEATEAQTTQPTATEAQTTPLAAMEALSTEPSATEALSMEPTTKRGLFIPFSVSSVTHKGIPMAASNLSVNYPVGAPDHISVKQCLLAILILALVATIFFVCTVVLAVRLSRKGHMYPVRNYSPTEMVCISSLLPDGGEGPSATANGGLSKAKSPGLTPEPREDREGDDLTLHSFLP
modifications: native myeloid glycosylation, 3H-glucosamine labelled
notes: 200-220 kD non-reduced, 100-120 kD reduced; also called U937 ligand; major U937 glycoprotein

fold binding of CHO:P-selectin cells relative to COS mock cells [7]: ~5.4 fold
B4: full-length P-selectin ligand protein (PSGL-1, pMT21:PL85) expressed with fucosylation (COS or CHO cells with 3/4FT, or LEC11 cells) (ligand)
chain: QATEYEYLDYDFLPETEPPEMLRNSTDTTPLTGPGTPESTTVEPAARRSTGLDAGGAVTELTTELANMGNLSTDSAAMEIQTTQPAATEAQTTPLAATEAQTTRLTATEAQTTPLAATEAQTTPPAATEAQTTQPTGLEAQTTAPAAMEAQTTAPAAMEAQTTPPAAMEAQTTQTTAMEAQTTAPEATEAQTTQPTATEAQTTPLAAMEALSTEPSATEALSMEPTTKRGLFIPFSVSSVTHKGIPMAASNLSVNYPVGAPDHISVKQCLLAILILALVATIFFVCTVVLAVRLSRKGHMYPVRNYSPTEMVCISSLLPDGGEGPSATANGGLSKAKSPGLTPEPREDREGDDLTLHSFLP
modifications: glycosylated; co-expressed with (α1,3/α1,4) fucosyltransferase (3/4FT) or made in SLex-positive LEC11 cells
notes: Encoded as amino acids 1-402; In blots and immunoprecipitations it stood as a membrane detergent extract; also called PSL; CD-PSGL-1 (R3.4) product

Reference: patent publication US7563760 (GENETICS INSTITUTE, dated 2009)
